T1: ovine FAP (oFAP) extracellular domain (ECD) (sheep)
T1 construct: also called oFAP-ECD
T1 chain: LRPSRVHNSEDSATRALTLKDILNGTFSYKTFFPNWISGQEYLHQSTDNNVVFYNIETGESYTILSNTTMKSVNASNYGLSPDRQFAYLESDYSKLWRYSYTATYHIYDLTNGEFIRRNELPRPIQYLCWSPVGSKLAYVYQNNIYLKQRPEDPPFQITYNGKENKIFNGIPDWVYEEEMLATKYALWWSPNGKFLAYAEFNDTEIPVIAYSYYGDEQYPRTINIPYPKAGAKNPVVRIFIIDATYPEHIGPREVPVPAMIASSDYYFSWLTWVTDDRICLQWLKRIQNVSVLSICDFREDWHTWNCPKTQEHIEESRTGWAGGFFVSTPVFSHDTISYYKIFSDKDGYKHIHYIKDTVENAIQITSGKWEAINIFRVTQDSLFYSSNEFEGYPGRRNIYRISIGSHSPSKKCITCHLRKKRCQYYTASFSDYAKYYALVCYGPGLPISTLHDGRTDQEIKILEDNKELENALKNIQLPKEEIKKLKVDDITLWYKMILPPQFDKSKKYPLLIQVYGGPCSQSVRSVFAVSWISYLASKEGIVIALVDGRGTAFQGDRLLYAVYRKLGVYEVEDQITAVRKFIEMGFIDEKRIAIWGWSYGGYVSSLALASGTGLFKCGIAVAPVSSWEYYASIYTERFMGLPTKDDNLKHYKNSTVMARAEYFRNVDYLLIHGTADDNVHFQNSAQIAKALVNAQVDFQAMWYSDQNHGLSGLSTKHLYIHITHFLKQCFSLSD

T2: human FAP expressed on transduced cells (SKRC52-hFAP, HT-1080-hFAP) (human, UniProt Q12884 1-760)
T2 construct: whole, on cells; Also the target in SKRC52-hFAP tumor cryosections and in tumors of tumor-bearing mice; also called cell-expressed human FAP
T2 sequence (looked up): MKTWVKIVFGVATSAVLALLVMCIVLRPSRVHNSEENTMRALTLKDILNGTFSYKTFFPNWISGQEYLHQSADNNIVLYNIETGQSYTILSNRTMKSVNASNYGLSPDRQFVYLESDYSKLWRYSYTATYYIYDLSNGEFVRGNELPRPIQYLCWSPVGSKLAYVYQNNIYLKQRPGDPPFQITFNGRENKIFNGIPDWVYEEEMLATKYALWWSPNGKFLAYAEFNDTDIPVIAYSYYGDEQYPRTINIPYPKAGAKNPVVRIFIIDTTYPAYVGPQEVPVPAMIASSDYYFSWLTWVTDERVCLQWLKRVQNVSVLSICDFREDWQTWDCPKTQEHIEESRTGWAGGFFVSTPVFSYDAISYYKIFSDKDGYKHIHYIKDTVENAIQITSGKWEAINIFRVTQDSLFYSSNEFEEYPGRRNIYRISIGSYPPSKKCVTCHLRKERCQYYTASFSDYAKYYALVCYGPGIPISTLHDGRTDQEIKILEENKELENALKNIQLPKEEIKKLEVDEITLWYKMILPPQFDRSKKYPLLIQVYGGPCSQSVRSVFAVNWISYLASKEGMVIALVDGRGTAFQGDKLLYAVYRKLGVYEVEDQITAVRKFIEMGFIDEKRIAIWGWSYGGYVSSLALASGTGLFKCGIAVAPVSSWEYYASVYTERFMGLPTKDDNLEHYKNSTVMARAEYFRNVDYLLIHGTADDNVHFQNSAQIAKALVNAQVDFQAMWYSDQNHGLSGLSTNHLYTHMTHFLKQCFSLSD

T3: porcine FAP (pFAP) extracellular domain (ECD) (pig, UniProt A5D7B7 39-760 (bovine entry))
T3 construct: also called pFAP-ECD
T3 chain: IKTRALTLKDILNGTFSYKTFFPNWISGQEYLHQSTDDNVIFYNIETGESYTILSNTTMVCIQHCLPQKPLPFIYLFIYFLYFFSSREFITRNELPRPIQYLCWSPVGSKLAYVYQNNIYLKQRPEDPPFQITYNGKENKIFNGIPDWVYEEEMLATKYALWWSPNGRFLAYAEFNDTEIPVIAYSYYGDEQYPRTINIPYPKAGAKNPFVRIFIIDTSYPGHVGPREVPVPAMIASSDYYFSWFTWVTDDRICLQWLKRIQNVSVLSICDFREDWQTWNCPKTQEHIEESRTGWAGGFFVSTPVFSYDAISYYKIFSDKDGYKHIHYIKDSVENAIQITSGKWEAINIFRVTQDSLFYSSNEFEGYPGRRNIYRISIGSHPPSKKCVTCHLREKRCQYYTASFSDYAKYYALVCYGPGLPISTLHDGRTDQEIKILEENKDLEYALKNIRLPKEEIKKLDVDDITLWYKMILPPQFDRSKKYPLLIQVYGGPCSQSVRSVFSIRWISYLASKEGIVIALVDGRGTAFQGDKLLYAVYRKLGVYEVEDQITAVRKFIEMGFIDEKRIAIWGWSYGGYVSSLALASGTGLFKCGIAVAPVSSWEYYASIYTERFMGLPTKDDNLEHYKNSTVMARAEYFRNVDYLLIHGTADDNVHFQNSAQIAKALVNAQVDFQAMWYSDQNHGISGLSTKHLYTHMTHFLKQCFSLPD


Tests used:
[1] = target: T1, ovine FAP (oFAP) extracellular domain …; assay: ELISA, 120 nM oFAP-ECD coated on Maxisorp plates
Description: (§1) Cross-reactivity of the anti-hFAP antibodies with oFAP-ECD and pFAP-ECD was tested using ELISA. 120 nM of oFAP-ECD or pFAP-ECD was coated on Maxisorp plates overnight at 4° C. […] Specifically, the C5 antibody was employed in IgG2a format, while all other antibodies, including the 7NP2 antibody, were in IgG1 format. The differences between the IgG2a and IgG1 formats are not expected to affect binding to FAP. After 3 washes with PBS, binding of the antibodies to oFAP-ECD and pFAP-ECD was detected using an anti-human or anti-murine antibody HRP conjugate.

[2] = target: T2, human FAP expressed on transduced cells …; assay: immunofluorescence on SKRC52-hFAP tumor cryosections, FITC conjugate
Description: Immunofluorescence experiments were performed with 7NP2 and KSF (negative control), both in IgG1 format on cryosections of renal cell carcinoma SKRC52-hFAP tumor tissue slides, which were transduced to express human FAP. The 7NP2 and KSF IgG1 molecules were conjugated to FITC to allow detection. Cryostat sections (10 μm) were stained using the 7NP2 and KSF IgG1 conjugates at a final concentration of 10 μg/mL and detected with rabbit anti-FITC and goat anti-rabbit AlexaFluor488 antibody. Slides were mounted with fluorescent mounting medium and analyzed with a microscope (FIG. 5).

[3] = target: T3, porcine FAP (pFAP) extracellular domain …; assay: ELISA, 120 nM pFAP-ECD coated on Maxisorp plates
Description: as §1

[4] = target: T1, ovine FAP (oFAP) extracellular domain …; assay: ELISA, 120 nM oFAP-ECD coated, antibody at 5 ug/mL
Description: as §1

binding result [1] | binding result [2] | binding result [3] | binding result [4] | Binder
no binding (tested: 5 µg/mL) | no binding (tested: 10 µg/mL) | no binding (tested: 5 µg/mL) | – | anti-hen egg lysozyme antibody KSF in IgG1 format (antibody, V domains shown, Negative control; It was conjugated to FITC in the immunofluorescence and ex vivo experiments; also called KSF IgG1; KSF(IgG1)) VH: not shown VL: SSELTQDPAVSVALGQTVRITCQGDSLRSYYASWYQQKPGQAPVLVIYGKNNRPSGIPDRFSGSSSGNTASLTITGAQAEDEADYYCQSSPLNRLAVVFGGGTKLTVLG
– | – | – | binds | anti-FAP antibody 7NP2 in IgG1 format (antibody, V domains shown, also called 7NP2 IgG1; 7NP2(IgG1)) VH: EVQLLESGGGLVQPGGSLRLSCAASGFTFSSYAMSWVRQAPGKGLEWVSAIGSVGGPTYYADSVKGRFTISRDNSKNTLYLQMNSLRAEDTAVYYCAKRLAWFDYWGQGTLVTVSS VL: EIVLTQSPGTLSLSPGERATLSCRASQSVSSSYLAWYQQKPGQAPRLLIYGASSRATGIPDRFSGSGSGTDFTLTISRLEPEDFAVYYCQQSGKGPLTFGQGTKVEIKR

Source: US20240199762A1 (PHILOGEN S P A, published 2024)
